Assay results: patent US20200353078A1 (AstraZeneca / MedImmune, published 2020)
Residue numbers refer to the chain shown, from its start.

Experiments:
[1] = molecular target: T1, Human IL-33 (Axxora/Adipogen AG-40B-0038) (human, UniProt O95760 112-270, limits assumed); assay: cell-based or functional assay
T1 sequence (looked up): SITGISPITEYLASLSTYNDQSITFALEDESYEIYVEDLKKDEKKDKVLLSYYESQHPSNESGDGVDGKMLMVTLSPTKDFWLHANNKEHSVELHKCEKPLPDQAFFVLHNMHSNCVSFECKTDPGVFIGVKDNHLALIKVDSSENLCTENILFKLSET

[2] = molecular target: T1, Human IL-33 (Axxora/Adipogen …); assay: cell-based or functional assay; remark: listed apart in the source
[3] = molecular target: T1, Human IL-33 (Axxora/Adipogen …); assay: HTRF epitope competition: unlabelled IgG against DyLight labelled H338L293 for biotinylated human IL-33
Endogenous human IL-33 = molecular target: T2, Endogenous human IL-33 (human, UniProt O95760 1-270, limits assumed); assay: cell-based or functional assay
T2 sequence (looked up): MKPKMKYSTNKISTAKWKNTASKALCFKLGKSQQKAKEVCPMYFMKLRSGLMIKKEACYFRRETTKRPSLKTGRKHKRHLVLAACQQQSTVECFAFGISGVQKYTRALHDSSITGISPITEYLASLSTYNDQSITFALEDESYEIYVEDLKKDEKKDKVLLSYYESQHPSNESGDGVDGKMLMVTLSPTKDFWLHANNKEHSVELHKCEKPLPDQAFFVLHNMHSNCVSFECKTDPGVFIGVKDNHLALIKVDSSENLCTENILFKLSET

[4] = molecular target: T3, Full-length human IL-33 (amino acids 1-270), HEK293-EBNA cell lysate (human, UniProt O95760 1-270); assay: cell-based or functional assay
T3 sequence (looked up): T2 sequence (looked up)

33_640237-2B IgG1 = molecular target: T4, 33_640237-2B IgG1; assay: HTRF: unlabelled test protein competes with biotinylated human IL33-01 for DyLight650 labelled 33_640237-2B IgG
T4 construct: IgG1
Description: Human, cyno and mouse IL-33 FLAG® His (described in Example 1 and Table 21), Human IL-1 alpha and IL-1 beta (R&D Systems) (Table 21) or rat IL-33 (GenScript) were tested for inhibition of human IL-33 binding to DyLight650 labelled 33_640087-7B or DyLight650 labelled 33_640237-2B by adding 5 microlitres of each dilution of sample to a 384 well low volume assay plate (Costar, 3673). […] This was followed by the addition of 2.5 microlitres of a solution containing 0.12 nM biotinylated human IL-33-01 combined with 0.75 nM streptavidin cryptate detection (Cisbio International, 610SAKLB). All dilutions were performed in assay buffer containing 0.8 M potassium fluoride (VWR, 26820.236) and 0.1% bovine serum albumin (BSA, PAA, K05-013) in Dulbeccos PBS (Invitrogen, 14190185). Assay plates were incubated for 4 hours at room temperature followed by 18 hours at 4 degrees Celsius and time resolved fluorescence was read at 620 nm and 665 nm emission wavelengths using an EnVision plate reader (Perkin Elmer). Data were analysed by calculating the 665/620 nm ratio followed by the % Delta F values for each sample. The 665/620 nm ratio was used to correct for sample interference using Equation 1. The % Delta F for each sample was then calculated using Equation 2. The negative control (non-specific binding) was defined by replacing biotinylated human IL-33 combined with streptavidin cryptate detection with streptavidin cryptate detection only. The % Delta F values were subsequently used to calculate % specific binding as described in Equation 3. IC₅₀ values were determined using GraphPad Prism software by curve fitting using a four-parameter logistic equation (Equation 4).

Human IL-33 Flag®His [5] = molecular target: T5, Human IL-33 Flag®His (human); assay: cell-based or functional assay
T5 chain: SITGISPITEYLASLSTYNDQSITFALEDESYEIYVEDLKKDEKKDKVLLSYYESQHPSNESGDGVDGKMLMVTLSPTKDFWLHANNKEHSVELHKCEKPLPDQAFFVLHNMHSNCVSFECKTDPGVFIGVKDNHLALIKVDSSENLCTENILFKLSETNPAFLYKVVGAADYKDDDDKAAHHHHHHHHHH

Human IL-33 Flag®His [6] = molecular target: T5, Human IL-33 Flag®His; assay: HTRF competition, IgG titrated against biotinylated human ST2-Fc
Description: (§1) The ability of anti-IL-33 antibodies to inhibit the binding of FLAG®-His tagged IL-33 to the ST2 receptor was assessed in a biochemical HTRF® (Homogeneous Time-Resolved Fluorescence, Cisbio International) competition assay, the principles of which are described above.
(§2) Activity of purified IgG preparations were determined by competing a dilution series of the purified IgG against biotinylated human or mouse ST2.Fc for binding to FLAG® His-tagged human, cynomolgus or mouse IL-33.
(§3) Purified or unpurified anti-IL-33 antibody samples were tested for inhibition of FLAG®-His tagged IL-33 binding ST2-Fc by adding 10 microlitres of each dilution of antibody test sample to a 384 well low volume assay plate (Costar 3676). Next, a solution containing 4 nM biotinylated human or mouse ST2-Fc and 20 nM streptavidin XL665 detection (Cisbio International, 611SAXLB) was prepared and 5 microlitres of the mix added to the assay plate. This was followed by the addition of 5 microlitres of a solution containing 1.2 nM FLAG®-His tagged human, cynomolgus or mouse IL-33 combined with 1.72 nM anti-FLAG® cryptate detection (Cisbio International, 61FG2KLB). All dilutions were performed in assay buffer comprised of Dulbeccos PBS (Invitrogen, 14190185) containing 0.8 M potassium fluoride (BDH 103444T) and 0.1% BSA (Sigma A9576). Assay plates were incubated for 2 hour at room temperature followed by 16 hour at 4° C. before reading time resolved fluorescence at 620 nm and 665 nm emission wavelengths using an EnVision plate reader (Perkin Elmer).

[7] = molecular target: T6, Cynomolgus IL-33 Flag®His (cynomolgus monkey); assay: as above
T6 construct: C-terminal FLAG 10xHis tag, E. coli; also called Mature Cynomolugus IL-33; cyno IL-33 FH
T6 chain: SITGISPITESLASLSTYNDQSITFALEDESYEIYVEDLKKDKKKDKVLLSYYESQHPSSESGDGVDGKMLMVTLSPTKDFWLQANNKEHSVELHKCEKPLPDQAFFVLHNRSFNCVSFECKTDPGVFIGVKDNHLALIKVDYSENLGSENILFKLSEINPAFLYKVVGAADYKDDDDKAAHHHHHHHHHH
Description: as §1, §2, §3

Human IL-33 Flag®His [8] = molecular target: T5, Human IL-33 Flag®His; assay: SPR BIAcore 2000, IgG captured on Protein G', IL-33 as analyte, 1:1 Langmuir
Description: (§4) The binding affinity of purified IgG samples of exemplary binding members to human and cynomolgus IL-33 was determined by surface plasmon resonance using BIAcore 2000 biosensor (BIAcore AB) essentially as described by Karlsson et al., J Immunol Methods 145(1-2):229-40 (1991). In brief, Protein G′ (Sigma Aldrich, P4689) was covalently coupled to the surface of a CM5 sensor chip using standard amine coupling reagents according to manufacturer's instructions (BIAcore). The protein G′ surface was used to capture purified anti-IL-33 antibodies via the Fc domain to provide a surface density of approximately 290 RU per cycle. Human or cynomolgus IL-33 prepared in HBS-EP buffer (BIAcore AB), at a range of concentrations, between 600 nM and 18.75 nM, were passed over the sensor chip surface. The surface was regenerated using two 10 mM Glycine washes of pH 1.7 and pH 1.5 between each injection of antibody. The resulting sensorgrams were evaluated using BIA evaluation 3.1 software and fitted to a 1:1 Langmuir binding model, to provide relative binding data. The binding results (KD, Ka, and Kd) for antibodies IL330002 and IL330004 binding to human or cynomolgus IL-33 are shown in Table 8.

[9] = molecular target: T6, Cynomolgus IL-33 Flag®His; assay: as above
Description: as §4

B1: H338L293 IgG1 (as in Table 13) (antibody, V domains shown)
VH: EVQLLESGGGLVQPGGSLRLSCAASGFTFSSYAMSWVRQAPGKGLEWVSAISPREGWQYYADSVKGRFTISRDNSKNTLYLQMNSLRAEDTAVYYCVRVVAGYFDSWGRGTLVTVSS
VL: SYVLTQPPSVSVSPGQTARITCSGDALPKQYAHWYQQKPGQAPALVIYKDTERPSGIPERFSGSSSGTTVTLTISGVQAEDEADYYCMSSDPSGASRVFGGGTKVTVL
notes: IgG1
[1]
  Huvec IL-6 production, maximum inhibition: ~70%
  Mast cell IL-6 production, inhibition: 100%
[2]
  IC50, Huvec IL-6 production: 1.9 nM
  IC50, Mast cell IL-6 production: 1.7 nM
[3]
  IC50 (read off the curve): ~1 nM

B2: IL330396 IgG1 (antibody, V domains shown)
VH: EVQLLESGGGLVQPGGSLRLSCAASGFTFSSYAMSWVRQAPGKGLEWVSASTPWQGSTYYADSVKGRFTISRDNSKNTLYLQMNSLRAEDTAVYYCVRWYWGWIDSWGRGTLVTVSS
VL: B1 VL with P92D, S93T
notes: IgG1; also called IL3300396
[1]
  Huvec IL-6 production, maximum inhibition: ~70%
  Mast cell IL-6 production, inhibition: 100%
[3]
  IC50 (read off the curve): ~1 nM

B3: IL330388 IgG1 (antibody, V domains shown)
VH: B2 VH
VL: B1 VL
notes: IgG1; also called IL3300388
[1]
  Huvec IL-6 production, maximum inhibition: ~70%
  Mast cell IL-6 production, inhibition: 100%
[3]
  IC50 (read off the curve): ~1 nM

B4: Human ST2-Fc (R&D Systems, or source not stated in the example) (Fc fusion, UniProt Q01638 19-328, looked up, not shown: a dimerising Fc or GST)
chain: KFSKQSWGLENEALIVRCPRQGKPSYTVDWYYSQTNKSIPTQERNRVFASGQLLKFLPAAVADSGIYTCIVRSPTFNRTGYANVTIYKKQSDCNVPDYLMYSTVSGSEKNSKIYCPTIDLYNWTAPLEWFKNCQALQGSRYRAHKSFLVIDNVMTEDAGDYTCKFIHNENGANYSVTATRSFTVKDEQGFSLFPVIGAPAQNEIKEVEIGKNANLTCSACFGKGTQFLAAVLWQLNGTKITDFGEPRIQQEEGQNQSFSNGLACLDMVLRIADVKEEDLLLQYDCLALNLHGLRRHTVRLSRKNPIDHHS
Endogenous human IL-33
  IC50, Huvec IL-8 release stimulated by human lung lysate: 0.019 nM
[4]
  IC50, Huvec IL-8 assay vs. full length IL-33 cell lysate: 0.67 nM

B5: Mouse IL-33 Flag®His (ligand)
chain: SIQGTSLLTQSPASLSTYNDQSVSFVLENGCYVINVDDSGKDQEQDQVLLRYYESPCPASQSGDGVDGKKLMVNMSPIKDTDIWLHANDKDYSVELQRGDVSPPEQAFFVLHKKSSDFVSFECKNLPGTYIGVKDNQLALVEEKDESCNNIMFKLSKINPAFLYKVVGAADYKDDDDKAAHHHHHHHHHH
notes: C-terminal FLAG 10xHis tag, E. coli; also called Mature Mouse IL-33_FH; mouse IL-33 FH
33_640237-2B IgG1
  binding result: no binding (tested: about 10^-5.5 M)

B6: IL330002 IgG1 (antibody, V domains shown)
VH: not shown
VL: SYELTQPPSLSVSPGQTASITCSGDKLGDKYVSWYQQKPGQSPILVIYHDNKRPSGIPERFSGSNSGNTATLTISGTQAMDEADYYCQAWDSNAGYVFGTGTKVTVL
notes: Human IgG1, lambda constant
Human IL-33 Flag®His [5]
  IC50, human ST2 transfected HeLa NFkB luciferase reporter assay: 226 nM
Human IL-33 Flag®His [6]
  IC50: 27 nM
[7]
  IC50: 42 nM
Human IL-33 Flag®His [8]
  Kd: 35 nM
  koff: 0.00218 s⁻¹
  kon: 61600 M⁻¹ s⁻¹
[9]
  Kd: 189 nM
  koff: 0.00442 s⁻¹
  kon: 23400 M⁻¹ s⁻¹

B7: IL330071 IgG1 (antibody, V domains shown)
VH: EVQLVESGAEVKQPGASVKVSCKASGYTFTSYGISWVRQAPGQGLEWMGWISAYNGNTNYAQKLQGRVTMTTDTSTSTAYMELRSLRSDDTAVYYCARRGFYHDAFDIWGRGTTVTVSS
VL: AIQLTQSPSSLSASVGDRVTITCRASQGISNYLAWYQQKPGKVPKLLIYAASTLQSGVPSRFSGSGSGTEFTLTISSLQPDDFATYYCQQYNSYSVTFGQGTKVEIK
notes: Human IgG1, lambda constant
Human IL-33 Flag®His [5]
  IC50, human ST2 transfected HeLa NFkB luciferase reporter assay: 226 nM
Human IL-33 Flag®His [6]
  IC50: 59 nM
[7]
  IC50: 375 nM
